Measured values taken from patent US20180289766A1 (HONG KONG BAPTIST UNIVERSITY, published 2018).
Positions of bridges follow the written chain, without caps; N, C: chain ends. No end group written: not given here.

T1: human galanin receptor 2 (hGalR2) (human, UniProt O43603 1-387)
T1 sequence (looked up): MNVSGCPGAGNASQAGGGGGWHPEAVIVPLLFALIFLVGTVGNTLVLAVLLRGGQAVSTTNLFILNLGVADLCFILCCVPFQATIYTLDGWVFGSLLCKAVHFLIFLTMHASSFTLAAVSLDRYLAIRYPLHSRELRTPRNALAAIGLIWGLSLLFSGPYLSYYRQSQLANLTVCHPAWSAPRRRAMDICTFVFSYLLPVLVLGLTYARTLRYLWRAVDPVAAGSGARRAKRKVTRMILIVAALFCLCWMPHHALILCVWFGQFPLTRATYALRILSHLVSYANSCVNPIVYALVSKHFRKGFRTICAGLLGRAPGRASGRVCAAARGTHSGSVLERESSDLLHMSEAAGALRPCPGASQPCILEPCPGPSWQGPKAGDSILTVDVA

T2: human galanin receptor 3 (hGalR3) (human, UniProt O60755 1-368)
T2 sequence (looked up): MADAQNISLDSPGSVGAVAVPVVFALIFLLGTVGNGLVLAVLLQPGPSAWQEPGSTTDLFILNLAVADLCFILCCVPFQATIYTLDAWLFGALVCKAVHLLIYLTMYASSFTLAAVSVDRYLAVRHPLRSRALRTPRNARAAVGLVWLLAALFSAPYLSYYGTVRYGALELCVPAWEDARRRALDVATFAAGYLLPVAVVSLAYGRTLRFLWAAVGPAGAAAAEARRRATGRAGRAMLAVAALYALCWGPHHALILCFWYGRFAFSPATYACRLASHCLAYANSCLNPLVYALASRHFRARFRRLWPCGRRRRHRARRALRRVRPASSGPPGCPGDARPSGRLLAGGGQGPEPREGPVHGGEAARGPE

T3: human galanin receptor 1 (hGalR1) (human, UniProt P47211 1-349)
T3 sequence (looked up): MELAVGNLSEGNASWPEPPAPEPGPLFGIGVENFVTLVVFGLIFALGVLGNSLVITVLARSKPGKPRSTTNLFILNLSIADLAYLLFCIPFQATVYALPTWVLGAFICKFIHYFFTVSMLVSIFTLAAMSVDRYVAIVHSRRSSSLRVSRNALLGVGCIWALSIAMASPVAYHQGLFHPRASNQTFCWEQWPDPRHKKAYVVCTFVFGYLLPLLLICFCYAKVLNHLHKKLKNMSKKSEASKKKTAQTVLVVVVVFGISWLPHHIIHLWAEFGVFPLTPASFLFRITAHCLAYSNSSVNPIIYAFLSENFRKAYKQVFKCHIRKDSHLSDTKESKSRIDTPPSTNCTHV


How the values were obtained:
Test in all cases: cell-based or functional assay
[1] = molecular target: T1, human galanin receptor 2 (hGalR2)
[2] = molecular target: T2, human galanin receptor 3 (hGalR3)
[3] = molecular target: T3, human galanin receptor 1 (hGalR1)

| Binder | EC50, receptor activation (SRE-Luc assay) [1] [nM] | Emax, receptor activation (SRE-Luc assay) [1] | EC50, receptor activation (SRE-Luc assay) [2] [nM] | Emax, receptor activation (SRE-Luc assay) [2] | EC50, receptor activation (SRE-Luc assay) [3] [nM] | Emax, receptor activation (SRE-Luc assay) [3] |
| --- | --- | --- | --- | --- | --- | --- |
| GWTLNSAGYLLGPHAV-NH2 [human galanin (1-16), hGAL (1-16)] | 220 | 1.02 relative to hSPX Emax | > 10000 | 0.45 relative to hSPX Emax | – | – |
| CWTPQAMLYLKGAQ-NH2 [hSPX (C1)] | 510 | 1.05 relative to hSPX Emax | 360 | 1 relative to hSPX Emax | – | – |
| NWTPQAMLYLKGCQ-NH2 [hSPX (C13)] | 370 | 0.87 relative to hSPX Emax | 630 | 0.88 relative to hSPX Emax | – | – |
| NWTCQAMLYLKGCQ-NH2 (disulfide 4-13; N-terminus assumed; SMILES CSCC[C@@H]1NC(=O)[C@H](C)NC(=O)[C@H](CCC(N)=O)NC(=O)[C@@H](NC(=O)[C@@H](NC(=O)[C@H](Cc2c[nH]c3ccccc23)NC(=O)[C@@H](N)CC(N)=O)[C@@H](C)O)CSSC[C@@H](C(=O)N[C@@H](CCC(N)=O)C(N)=O)NC(=O)CNC(=O)[C@H](CCCCN)NC(=O)[C@H](CC(C)C)NC(=O)[C@H](Cc2ccc(O)cc2)NC(=O)[C@H](CC(C)C)NC1=O) [LH102] | 1430 | 1.08 relative to hSPX Emax | 1500 | 0.87 relative to hSPX Emax | – | – |
| CWTLNSAGYLLGCHAV-NH2 (disulfide 1-13; N-terminus assumed; SMILES CC(C)C[C@@H]1NC(=O)[C@H](CC(C)C)NC(=O)[C@H](Cc2ccc(O)cc2)NC(=O)CNC(=O)[C@H](C)NC(=O)[C@H](CO)NC(=O)[C@H](CC(N)=O)NC(=O)[C@H](CC(C)C)NC(=O)[C@H]([C@@H](C)O)NC(=O)[C@H](Cc2c[nH]c3ccccc23)NC(=O)[C@@H](N)CSSC[C@@H](C(=O)N[C@@H](Cc2c[nH]cn2)C(=O)N[C@@H](C)C(=O)N[C@H](C(N)=O)C(C)C)NC(=O)CNC1=O) [LH201] | 120 | 1 relative to hSPX Emax | > 10000 | 0.55 relative to hSPX Emax | > 10000 | 0.35 relative to hGAL Emax |
| Ac-CWTPQAMLYLKGCQ-NH2 (disulfide 1-13; SMILES CSCC[C@@H]1NC(=O)[C@H](C)NC(=O)[C@H](CCC(N)=O)NC(=O)[C@@H]2CCCN2C(=O)[C@H]([C@@H](C)O)NC(=O)[C@H](Cc2c[nH]c3ccccc23)NC(=O)[C@@H](NC(C)=O)CSSC[C@@H](C(=O)N[C@@H](CCC(N)=O)C(N)=O)NC(=O)CNC(=O)[C@H](CCCCN)NC(=O)[C@H](CC(C)C)NC(=O)[C@H](Cc2ccc(O)cc2)NC(=O)[C@H](CC(C)C)NC1=O) [LH101 (Ac)] | 380 | 0.97 relative to hSPX Emax | 390 | 1 relative to hSPX Emax | – | – |
| Ac-CWTLNSAGYLLGCHAV-NH2 (disulfide 1-13) [LH201 (Ac)] | 480 | 1.16 relative to hSPX Emax | – | 0.2 relative to hSPX Emax | – | 0.22 relative to hGAL Emax |
| NWTCQAMLYLKGAQ-NH2 [hSPX (C4)] | 470 | 0.98 relative to hSPX Emax | 770 | 0.91 relative to hSPX Emax | – | – |
| GWTLNSAGYLLGPHAVGNHRSFSDKNGLTS-NH2 [human galanin (hGAL)] | – | – | – | 0.68 relative to hSPX Emax | – | – |
| CWTPQAMLYLKGCQ-NH2 (disulfide 1-13; N-terminus assumed; SMILES CSCC[C@@H]1NC(=O)[C@H](C)NC(=O)[C@H](CCC(N)=O)NC(=O)[C@@H]2CCCN2C(=O)[C@H]([C@@H](C)O)NC(=O)[C@H](Cc2c[nH]c3ccccc23)NC(=O)[C@@H](N)CSSC[C@@H](C(=O)N[C@@H](CCC(N)=O)C(N)=O)NC(=O)CNC(=O)[C@H](CCCCN)NC(=O)[C@H](CC(C)C)NC(=O)[C@H](Cc2ccc(O)cc2)NC(=O)[C@H](CC(C)C)NC1=O) [LH101] | 1190 | 1.09 relative to hSPX Emax | 1560 | 1.04 relative to hSPX Emax | – | – |
